Experimental data reported in the supplement of paper PMC11246515.
± gives the standard deviation of the averaged measurements.

Assay: total protein half-life in vivo (active degradation + dilution); higher = more stable protein
[1] = E. coli NCM3722 delta-clpP delta-lon delta-hslV, growth: N-lim chemostat, doubling time 6 h
[2] = E. coli NCM3722 delta-clpP, growth: N-lim chemostat, doubling time 6 h
[3] = E. coli NCM3722 delta-hslV, growth: N-lim chemostat, doubling time 6 h
[4] = E. coli NCM3722 delta-lon, growth: N-lim chemostat, doubling time 6 h
[5] = E. coli NCM3722 delta-smpB, growth: N-lim chemostat, doubling time 6 h
[6] = wild type E. coli NCM3722, growth: C-lim chemostat, doubling time 3 h
[7] = wild type E. coli NCM3722, growth: C-lim chemostat, doubling time 6 h
[8] = wild type E. coli NCM3722, growth: C-lim chemostat, doubling time 12 h
[9] = wild type E. coli NCM3722, growth: N-lim chemostat, doubling time 6 h
[10] = wild type E. coli NCM3722, growth: N-lim chemostat, doubling time 12 h
[11] = wild type E. coli NCM3722, growth: P-lim chemostat, doubling time 6 h
[12] = wild type E. coli NCM3722, growth: P-lim chemostat, doubling time 12 h

| Sequence | total protein half-life in vivo [1] | total protein half-life in vivo [2] | total protein half-life in vivo [3] | total protein half-life in vivo [4] | total protein half-life in vivo [5] | total protein half-life in vivo [6] | total protein half-life in vivo [7] | total protein half-life in vivo [8] | total protein half-life in vivo [9] | total protein half-life in vivo [10] | total protein half-life in vivo [11] | total protein half-life in vivo [12] |
| --- | --- | --- | --- | --- | --- | --- | --- | --- | --- | --- | --- | --- |
| MRSFSQLWPTLKRLLAYGSPWRKPLGIAVLMMWVAAAAEVSGPLLISYFIDNMVAKNNLPLKVVAGLAAAYVGLQLFAAGLHYAQSLLFNRAAVGVVQQLRTDVMDAALRQPLSEFDTQPVGQVISRVTNDTEVIRDLYVTVVATVLRSAALVGAMLVAMFSLDWRMALVAIMIFPVVLVVMVIYQRYSTPIVRRVRAYLADINDGFNEIINGMSVIQQFRQQARFGERMGEASRSHYMARMQTLRLDGFLLRPLLSLFSSLILCGLLMLFGFSASGTIEVGVLYAFISYLGRLNEPLIELTTQQAMLQQAVVAGERVFELMDGPRQQYGNDDRPLQSGTIEVDNVSFAYRDDNLVLKNINLSVPSRNFVALVGHTGSGKSTLASLLMGYYPLTEGEIRLDGRPLSSLSHSALRQGVAMVQQDPVVLADTFLANVTLGRDISEERVWQALETVQLAELARSMSDGIYTPLGEQGNNLSVGQKQLLALARVLVETPQILILDEATASIDSGTEQAIQHALAAVREHTTLVVIAHRLSTIVDADTILVLHRGQAVEQGTHQQLLAAQGRYWQMYQLQLAGEELAASVREEESLSA [P0AAG5] | 6.44 ± 0.43 h | 6 ± 0.12 h | 4.33 ± 0.16 h | 3.97 ± 0.13 h | 4.31 ± 0.43 h | 2.85 h | 4.47 ± 0.42 h | 8.8 ± 2.3 h | 4.589 ± 0.038 h | 6.71 ± 0.085 h | 5.09 ± 0.38 h | 10.3 ± 0.7 h |
| MRSIARRTAVGAALLLVMPVAVWISGWRWQPGEQSWLLKAAFWVTETVTQPWGVITHLILFGWFLWCLRFRIKAAFVLFAILAAAILVGQGVKSWIKDKVQEPRPFVIWLEKTHHIPVDEFYTLKRAERGNLVKEQLAEEKNIPQYLRSHWQKETGFAFPSGHTMFAASWALLAVGLLWPRRRTLTIAILLVWATGVMGSRLLLGMHWPRDLVVATLISWALVAVATWLAQRICGPLTPPAEENREIAQREQES [P0A924] | 6.18 ± 0.47 h | 7.12 ± 0.17 h | 7.17 h | 5.52 ± 0.8 h | 5.95 ± 0.56 h |  | 6.009 ± 0.045 h | 14.4 ± 1.7 h | 6.36 ± 0.65 h | 11.9 ± 0.65 h | 6.14 ± 0.54 h | 10.7 ± 2 h |
| MRSSAKQEELVKAFKALLKEEKFSSQGEIVAALQEQGFDNINQSKVSRMLTKFGAVRTRNAKMEMVYCLPAELGVPTTSSPLKNLVLDIDYNDAVVVIHTSPGAAQLIARLLDSLGKAEGILGTIAGDDTIFTTPANGFTVKDLYEAILELFDQEL [P0A6D0] | 5.74 h | 5.76 ± 0.36 h | 5.36 ± 0.18 h | 6.26 h | 6.3 ± 1.1 h | 3.07 ± 0.25 h | 5.2 ± 1 h | 10.7 ± 1.8 h | 5.26 ± 0.67 h | 10.5 h | 4.85 ± 0.56 h | 11.8 ± 0.96 h |
| MRTFSGKRSTLALAIAGVTAMSGFMAMPEARAEGFIDDSTLTGGIYYWQRERDRKDVTDGDKYKTNLSHSTWNANLDFQSGYAADMFGLDIAAFTAIEMAENGDSSHPNEIAFSKSNKAYDEDWSGDKSGISLYKAAAKFKYGPVWARAGYIQPTGQTLLAPHWSFMPGTYQGAEAGANFDYGDAGALSFSYMWTNEYKAPWHLEMDEFYQNDKTTKVDYLHSFGAKYDFKNNFVLEAAFGQAEGYIDQYFAKASYKFDIAGSPLTTSYQFYGTRDKVDDRSVNDLYDGTAWLQALTFGYRAADVVDLRLEGTWVKADGQQGYFLQRMTPTYASSNGRLDIWWDNRSDFNANGEKAVFFGAMYDLKNWNLPGFAIGASYVYAWDAKPATWQSNPDAYYDKNRTIEESAYSLDAVYTIQDGRAKGTMFKLHFTEYDNHSDIPSWGGGYGNIFQDERDVKFMVIAPFTIF |  |  |  |  |  | 1.45 h | 2.07 h | 2.36 h |  |  |  |  |
| MRTLLAILLFPLLVQAAGEGMWQASSVGITLNHRGESMSSAPLSTRQPASGLMTLVAWRYQLIGPTPSGLRVRLCSQSRCVELEGQSGTTVAFSGIAAAEPLRFIWEVPGGGRLIPPLKVQRNEVIVNYR |  |  |  |  |  |  | 4.74 h | 8.78 ± 2.5 h |  |  |  |  |
| MRTRHLVGLISGVLILSVLLPVGLSIWLAHQQVETSFIEELDTYSSRVAIRANKVATQGKDALQELERWQGAACSEAHLMEMRRVSYSYRYIQEVAYIDNNVPQCSSLEHESPPDTFPEPGKISKDGYRVWLTSHNDLGIIRYMVAMGTAHYVVMIDPASFIDVIPYSSWQIDAAIIGNAHNVVITSSDEIAQGIITRLQKTPGEHIENNGIIYDILPLPEMNISIITWASTKMLQKGWHRQVFIWLPLGLVIGLLAAMFVLRILRRIQSPHHRLQDAIENRDICVHYQPIVSLANGKIVGAEALARWPQTDGSWLSPDSFIPLAQQTGLSEPLTLLIIRSVFEDMGDWLRQHPQQHISINLESPVLTSEKIPQLLRDMINHYQVNPRQIALELTEREFADPKTSAPIISRYREAGHEIYLDDFGTGYSSLSYLQDLDVDILKIDKSFVDALEYKNVTPHIIEMAKTLKLKMVAEGIETSKQEEWLRQHGVHYGQGWLYSKALPKEDFLRWAEQHL | 6.97 ± 0.34 h |  | 5.64 ± 0.36 h | 5.57 ± 1.2 h | 6.12 ± 0.67 h | 3.21 ± 0.33 h |  |  | 6 ± 0.23 h | 12.2 ± 0.44 h | 6.32 ± 0.94 h | 12.6 ± 0.13 h |
